Assay results published in patent US20190040131A1 (published 2019).

Tests used:
human CD33 [1] = target: T1, human CD33 (human, UniProt P20138 18-259, limits assumed); test: BLI (ForteBio), CD33 on tip, Fab 100 nM
T1 construct: Human CD33 immobilized on the BLI sensor tip or the BIAcore C1 chip; also called Siglec-3
Protocol: (§1) The affinities (KD) of the humanized antibodies for human CD33 were measured for each antibody by BioLayer Interferometry in a ForteBio assay according to standard techniques (Estep et al. (2013) MAbs 5(2): 270-8). […] The assay was carried out at room temperature.
(§2) The affinities of AB-H14 and its affinity-matured variants (Table 15) and AB-H63 and its affinity-matured variants (Table 16), for human CD33 were measured by Fortebio assay according to the method described in Example 1 above.

human CD33 [2] = target: T1, human CD33; test: BLI (ForteBio), Fab; column looks row-shifted against KD
Protocol: as §1, §2

T1 sequence (P20138 18-259 limits assumed): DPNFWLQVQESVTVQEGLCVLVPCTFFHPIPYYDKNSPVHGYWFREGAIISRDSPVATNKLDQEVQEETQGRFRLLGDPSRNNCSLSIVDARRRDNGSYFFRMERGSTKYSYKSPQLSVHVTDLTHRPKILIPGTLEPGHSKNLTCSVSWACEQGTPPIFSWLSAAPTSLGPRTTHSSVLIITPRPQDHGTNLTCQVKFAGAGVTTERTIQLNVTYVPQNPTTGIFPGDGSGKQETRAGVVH

Row | Binder | Kd (human CD33 [1]) [nM] | koff (human CD33 [1]) [s⁻¹] | koff (human CD33 [2]) [s⁻¹] | kon (human CD33 [2]) [M⁻¹ s⁻¹]
1 | AB-14.1 (antibody, V domains shown) VH: QVQLVQSGAEVKKPGASVKVSCKASGATFTDYNFHWVRQAPGQGLEWIGFIYPSNGITGYAQDFQGRVTMTVDTSTSTVYMELSSLRSEDTAVYYCARSDVDYFDYWGQGTLVTVSS VL: DIQMTQSPSSLSASVGDRVTITCRASQSVSTSTYSYMHWYQQKPGKAPKLLIKYASNLESGVPSRFSGSGSGTDFTLTISSLQPEDFATYYCQHSWEIPLTFGQGTKLEIK | 0.299 | 0.0002 |  | 
2 | AB-63.5 (antibody, V domains shown) VH: QVQLVQSGAEVKKPGASVKVSCKASGYTFTDYNNHWVRQAPGQGLEWIGFIYPSNGITGYAQKFQGRVTMTVDTSTSTVYMELSSLRSEDTAVYYCARSDVDYFDYWGQGTLVTVSS VL: DIVLTQSPDSLAVSLGERATINCRASQSVSTSTYSYMHWYQQKPGQPPKLLIKYASNLESGVPDRFSGSGSGTDFTLTISSLQAEDVAVYYCQHSWEIPLTFGQGTKLEIK |  |  | 0.00155 | 776000
3 | AB-63.6 (antibody, V domains shown) VH: QVQLVQSGAEVKKPGASVKVSCKASGYTFTDYNLHWVRQAPGQGLEWIGFIYPSNGITGYAQKFQGRVTMTVDTSTSTVYMELSSLRSEDTAVYYCARSTVDYFDYWGQGTLVTVSS VL: DIVLTQSPDSLAVSLGERATINCRASQDVSTSTYSYMHWYQQKPGQPPKLLIKYASNLESGVPDRFSGSGSGTDFTLTISSLQAEDVAVYYCQHSWEIPLTFGQGTKLEIK |  |  | 0.00176 | 679000
4 | AB-63.8 (antibody, V domains shown) VH: QVQLVQSGAEVKKPGSSVKVSCKASGVTFTDYNYHWVRQAPGQGLEWIGFIYPSNGITGYAQKFQDRVTMTVDTSTSTVYMELSSLRSEDTAVYYCARSTVDYFDYWGQGTLVTVSS VL: DIVLTQSPDSLAVSLGERATINCRASQDVSTSTYSYMHWYQQKPGQPPKLLIKYASNLESGVPDRFSGSGSGTDFTLTISSLQAEDVAVYYCQHSWEIPLTFGQGTKLEIK |  |  | 0.000524 | 847000
5 | AB-63.7 (antibody, V domains shown) VH: QVQLVQSGAEVKKPGASVKVSCKASGYTFTDYNLHWVRQAPGQGLEWIGFIYPSNGITGYAQKFQGRVTMTVDTSTSTVYMELSSLRSEDTAVYYCARSTVDYFDYWGQGTLVTVSS VL: DIVLTQSPDSLAVSLGERATINCRASQDVSTSTYSYMHWYQQKPGQPPKLLIKYAFNLESGVPDRFSGSGSGTDFTLTISSLQAEDVAVYYCQHSWEIPLEFGQGTKLEIK |  |  | 0.000581 | 809000
6 | AB-63.4 (antibody, V domains shown) VH: QVQLVQSGAEVKKPGASVKVSCKASGYTFTDYNYHWVRQAPGQGLEWIGFIYPSNGITGYAQKFQGRVTMTVDTSTSTVYMELSSLRSEDTAVYYCARSTVDYFDYWGQGTLVTVSS VL: DIVLTQSPDSLAVSLGERATINCRASQSVSTSTYSYMHWYQQKPGQPPKLLIKYASNLESGVPDRFSGSGSGTDFTLTISSLQAEDVAVYYCQHSWEIPLTFGQGTKLEIK |  |  | 0.00112 | 602000

Further lines, results first:

Row | Kd (human CD33 [1]) [nM] | koff (human CD33 [1]) [s⁻¹] | koff (human CD33 [2]) [s⁻¹] | kon (human CD33 [2]) [M⁻¹ s⁻¹] | Binder
7 |  |  |  | 658000 | AB-63.9 (antibody, V domains shown) VH: QVQLVQSGAEVKKPGASVKVSCKASGYAFTDYNLHWVRQAPGQGLEWIGFIYPSNGITGYAQKFQGRVTMTVDTSTSTVYMELSSLRSEDTAVYYCARSDVDYFDYWGQGTLVTVSS VL: DIVLTQSPDSLAVSLGERATINCRASQDVSTSTYSYMHWYQQKPGQPPKLLIKYASYLESGVPDRFSGSGSGTDFTLTISSLQAEDVAVYYCEHSWEIPLTFGQGTKLEIK
8 |  |  | 0.0002 | 913000 | AB-63.11 (antibody, V domains shown) VH: QVQLVQSGAEVKKPGASVKVSCKASGYTFTDYNFHWVRQAPGQGLEWIGFIYPANGITGYAQKDQGRVTMTVDTSTSTVYMELSSLRSEDTAVYYCARSDVDYFDYWGQGTLVTVSS VL: DIVLTQSPDSLAVSLGERATINCRASQDVSTSTYSYMHWYQQKPGQPPKLLIKYASNLESGVPDRFSGSGSGTDFTLTISSLQAEDVAVYYCQHSWEIPLTFGQGTKLEIK
9 |  |  | 0.000336 | 721000 | AB-63.13 (antibody, V domains shown) VH: QVQLVQSGAEVKKPGASVKVSCKASGYTFTDYNLHWVRQAPGQGLEWIGFIYPSNGIRGYAQKFQGRVTMTVDTSTSTVYMELSSLRSEDTAVYYCARSDVDYFDYWGQGTLVTVSS VL: DIVLTQSPDSLAVSLGERATINCRASQSVSTSTYSYMHWYQQKPGQPPKLLIKYASNLESGVPDRFSGSGSGTDFTLTISSLQAEDVAVYYCQHSEEIPLTFGQGTKLEIK
10 |  |  | 0.000322 | 839000 | AB-63.14 (antibody, V domains shown) VH: QVQLVQSGAEVKKPGSSVKVSCKASGYTFTDYNLHWVRQAPGQGLEWIGFIYPSNGITGYAQKFQGRVTMTVDTSTSTVYMELSSLRSEDTAVYYCARSDVDYFDYWGQGTLVTVSS VL: DIVLTQSPDSLAVSLGERATIDCKASQDVSTSTYSYMHWYQQKPGQPPKLLIKYASNLESGVPDRFSGSGSGTDFTLTISSLQAEDVAVYYCQHSWEIPLTFGQGTKLEIK
11 |  |  |  | 738000 | AB-63.12 (antibody, V domains shown) VH: QVQLVQSGAEVKKPGASVKVSCKASGYTFTDYNFHWVRQAPGQGLEWIGFIYPSNGITGYAQKFTGRVTMTVDTSTSTVYMELSSLRSEDTAVYYCARSTVDYFDDWGQGTLVTVSS VL: DIVLTQSPDSLAVSLGERATINCRASQDVSTSTYSYMHWYQQKPGQPPKLLIKYASNVESGVPDRFSGSGSGTDFTLTISSLQAEDVAVYYCQHSWAIPLTFGQGTKLEIK
12 |  |  | 0.000546 | 596000 | AB-63.10 (antibody, V domains shown) VH: QVQLVQSGAEVKKPGASVKVSCKASGYTETDYNLHWVRQAPGQGLEWIGFIYPSNGITGYAQKFQGRVTMTVDTSTSTVYMELSSLRSEDTAVYYCARSDVDYFDYWGQGTLVTVSS VL: DIVLTQSPDSLAVSLGERATINCRASQDVSTSTYSYMHWYQQKPGQPPKLLIKYASNLESGVPDRFSGSGSGTDFTLTISSLQAEDVAVYYCQHSWELPLTFGQGTKLEIK
13 |  |  | 0.000204 | 903000 | AB-63.18 (antibody, V domains shown) VH: QVQLVQSGAEVKKPGSSVKVSCKASGYTHTDYNLHWVRQAPGQGLEWIGFIYPSNGITGYAQKFQGRVTMTVDTSTSTVYMELSSLRSEDTAVYYCARSDVDYFDYWGQGTLVTVSS VL: DIVLTQSPDSLAVSLGERATINCRASQSVSTSTYSYMHWYQQKPGQPPKLLIKYESNLESGVPDRFSGSGSGTDFTLTISSLQAEDVAVYYCQHSWEIPLTFGQGTKLEIK
14 |  |  | 0.0002 | 723000 | AB-63.15 (antibody, V domains shown) VH: QVQLVQSGAEVKKPGASVKVSCKASGYTFTDYNYHWVRQAPGQGLEWIGFIYPSNGITGYAQKFQGRVTMTVDTSTSTVYMELSSLRSEDTAVYYCARSDVDYFDLWGQGTLVTVSS VL: DIVLTQSPDSLAVSLGERATINCRASQDVSTSTYSYMHWYQQKPGQPPKLLIKYASNVESGVPDRFSGSGSGTDFTLTISSLQAEDVAVYYCQHSWEIPLTFGQGTKLEIE
